B1: H017-9C10.2.8 (antibody, mouse IgG1, V domains shown)
VH: QVQLKQSGFGLVLPSQSLSITCTVSGFSLTSYGVHWVRQSPGKGLEWLGLIWSGGGTDYNAAFISRLSISKDNSKSQVFFKINSLQANDTAIYYCARQLGLRAMDYWGQGTSVTVSS
VL: DILLTQSPAILSVSPGERVSFSCRASQSIGTTIHWYQQRTNGSPRLLIKYASESVSGIPSRFSGSGSGTDFTLSINSVESEDIADYYCQQSNSWPLTFGAGTKLEIK
notes: Mouse hybridoma antibody purified from supernatant
B2: H017-6F11.3.2 (antibody, mouse IgG2b, V domains shown)
VH: EVQLQQSGAELVKPGASVKLSCTASGFNIKDTYIHWMRQRPEQGLEWIGRIDPANDNTKYDPKFQGKATVTADTSSNTAYLQLSSLTSEDTAVYYCARGLRLRYFDVWGAGTTVTVSS
VL: DIQMTQTPSSLSASLGGKVTITCKASQDIHKYIAWYQHKPGKGPRLLIHYTSTLQPGIPSRFSGSGSGRDFSFSISNLEPEDFETYYCLQYENLLPTFGGGTKLEIK
notes: as for B1
B3: H018-17B5.5.1 (antibody, mouse IgG1, V domains shown)
VH: QVQLQQSGAELMKPGASVKISCKATGYKFSSYWIEWVKQRPGHGLEWIGEILPGSGNPNYDEKFKGKATFTADTSSNTAYMQLSSLTSEDSAVYYCARERWMDSWGQGTSVTVSS
VL: DIQMTQTASSLSASLGDRVTISCSASQGIFNYLNWYQQKPDGTVTVLIYYTSRLHSGVPSRFSGSGSGTDYSLTISNLEPEDIATYYCQQYSKLPYTFGGGTKLEIKR
notes: as for B1

target: T1, MonkeyPDL1-his (monkey); test: ELISA, MonkeyPDL1-his coated 1 ug/ml, antibody titrated, HRP secondary
T1 construct: Coating antigen of the ELISA on monkey PD-L1; also called 猴PDL-1

Row | EC50 | Binder
1 | 0.191 nM | B1
2 | 0.123 nM | B2
3 | 0.7 nM | B3

target: T2, PDL1-hFc (human, UniProt Q9NZQ7 19-238, limits assumed); test: ELISA, PDL1-hFc coated 1 ug/ml, antibody titrated, HRP secondary
T2 construct: Coating antigen of the ELISA on human PD-L1 and of the T cell proliferation assay; also called humanPDL-1; 人PDL-1; not shown: human Fc (hFc)
T2 sequence (Q9NZQ7 19-238 limits assumed): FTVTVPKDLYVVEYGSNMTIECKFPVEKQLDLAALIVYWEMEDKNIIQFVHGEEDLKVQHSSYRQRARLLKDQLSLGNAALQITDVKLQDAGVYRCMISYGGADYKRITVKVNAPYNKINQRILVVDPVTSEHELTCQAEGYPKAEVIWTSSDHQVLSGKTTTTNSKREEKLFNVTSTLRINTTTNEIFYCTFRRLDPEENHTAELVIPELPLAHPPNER

Row | EC50 | Binder
4 | 0.079 nM | B1
5 | 0.049 nM | B2
6 | 0.133 nM | B3

From patent publication CN105461808A (CHANGCHUN GENESCIENCE PHARMACEUTICALS CO LTD, dated 2016)
